{"source": "paper PMC2606027", "about": "(2009)", "parents": {"B1": {"name": "LEDGF IBD fused to Gal4 transcription activation domain (WT prey) [human] / Full-length HIV-1 IN fused to the DNA binding domain of Gal4 (WT bait) [HIV-1] (parent complex)", "chain 1": "SMDSRLQRIHAEIKNSLKIDNLDVNRCIEALDELASLQVTMQQAQKHTEMITTLKKIRRFKVSQVIMEKSTMLYNKFKNMFLV", "chain 2": "not shown"}}, "data": [{"variants_of": "B1", "experiment": "yeast two-hybrid (β-galactosidase reporter); S. cerevisiae Y187; quadruplicate measurements", "values": [{"variant": "chain 1 K46E", "percent of parent": "129 % of WT/WT"}, {"variant": "chain 1 K14E", "percent of parent": "139 % of WT/WT"}]}, {"variants_of": "B1", "experiment": "yeast two-hybrid (β-galactosidase reporter); S. cerevisiae Y187; quadruplicate measurements; read off a plot", "values": [{"variant": "chain 1 K55E, chain 1 K56E, chain 1 R59E", "percent of parent": "~1.4 % of WT/WT"}, {"variant": "chain 1 D20N", "percent of parent": "~1.2 % of WT/WT"}, {"variant": "chain 1 K55E, chain 1 K56S, chain 1 R59E", "percent of parent": "~1.3 % of WT/WT"}]}]}
